# In paper PMC8769549:
# How the values were obtained:
# [1] = biological target: SARS-CoV-2 nsp3a (1 to 206) (SARS-CoV-2); assay: ITC
# [2] = biological target: SARS-CoV-2 nsp3 ubiquitin-like domain Ubl1 (1 to 111) (SARS-CoV-2); assay: ITC
substance,measurement,setting,value
"SARS-CoV-2 nucleoprotein N123 (domains N1, N2 and N3) (domain or fragment)",Kd,[1],131 nM
same,stoichiometry N,[1],0.665
same,Kd,[2],72 nM
same,stoichiometry N,[2],0.903
